According to US20240270874A1 (JIANGSU HENGRUI PHARMACEUTICALS, published 2024):

B1: hAb-23 (antibody, human IgG1, kappa, L234A L235A, V domains shown)
VH: QVQLVQSGAEVKKPGSSVKVSCKASGGTFSSYAISWVRQAPGQGLEWMGGIIPIFGTANYAQKFQGRVTITADESTSTAYMELSSLRSEDTAVYYCARELVSYYYGMDVWGQGTMVTVSS
VL: not shown
notes: from a human natural phage library; human IgG1 (L234A, L235A) / kappa; also called fully human antibody hAb-23
B2: hAb18-8 (antibody, human IgG1, kappa, L234A L235A, V domains shown)
VH: EVQLVQSGAEVKKPGASVKVSCKASGYTFTDYAMHWVRQAPGQRLEWMGVISTYSGTTNYNQNFKGRVTITVDKSASTAYMELSSLRSEDTAVYYCARSGPLDYWGQGTTVTVSS
VL: ENVLTQSPDFQSVTPKEKVTITCRATSSVSSSYLHWYQQKPDQSPKLWIYSTSQLASGVPSRFSGSGSGTDYTLTINSLEAEDAATYYCQQYSGYPLTFGQGTKLEIKR
notes: human IgG1 (L234A, L235A) / kappa
B3: hAb99-13 (antibody, human IgG1, kappa, L234A L235A, V domains shown)
VH: EVQLVQSGAEVKKPGASVKVSCKASGYTFTNYGINWVRQAPGQRLEWMGYIYIGNVDIEYNAKFKGRVTITSDTSASTAYMELSSLRSEDTAVYYCARGRGLGHFDVWGQGTTVTVSS
VL: DIQMTQSPSSLSASVGDRVTITCRASKSISKFLAWFQQKPGKTNKLLIYSGSTLQSGVPSRFSGSGSGTDFTLTISSLQPEDFATYYCQQHNEYPWTFGGGTKVEIKR
notes: as for B2

Legend:
[1] = target: T1, hKLB (R&D, Cat. # 5889-KB) (human, UniProt Q86Z14 53-997, limits assumed); assay: SPR (Biacore T200), antibody captured on Protein A chip, hKLB as analyte, 1:1 model
T1 construct: bought soluble protein; also called KLB protein; human KLB
T1 sequence (looked up): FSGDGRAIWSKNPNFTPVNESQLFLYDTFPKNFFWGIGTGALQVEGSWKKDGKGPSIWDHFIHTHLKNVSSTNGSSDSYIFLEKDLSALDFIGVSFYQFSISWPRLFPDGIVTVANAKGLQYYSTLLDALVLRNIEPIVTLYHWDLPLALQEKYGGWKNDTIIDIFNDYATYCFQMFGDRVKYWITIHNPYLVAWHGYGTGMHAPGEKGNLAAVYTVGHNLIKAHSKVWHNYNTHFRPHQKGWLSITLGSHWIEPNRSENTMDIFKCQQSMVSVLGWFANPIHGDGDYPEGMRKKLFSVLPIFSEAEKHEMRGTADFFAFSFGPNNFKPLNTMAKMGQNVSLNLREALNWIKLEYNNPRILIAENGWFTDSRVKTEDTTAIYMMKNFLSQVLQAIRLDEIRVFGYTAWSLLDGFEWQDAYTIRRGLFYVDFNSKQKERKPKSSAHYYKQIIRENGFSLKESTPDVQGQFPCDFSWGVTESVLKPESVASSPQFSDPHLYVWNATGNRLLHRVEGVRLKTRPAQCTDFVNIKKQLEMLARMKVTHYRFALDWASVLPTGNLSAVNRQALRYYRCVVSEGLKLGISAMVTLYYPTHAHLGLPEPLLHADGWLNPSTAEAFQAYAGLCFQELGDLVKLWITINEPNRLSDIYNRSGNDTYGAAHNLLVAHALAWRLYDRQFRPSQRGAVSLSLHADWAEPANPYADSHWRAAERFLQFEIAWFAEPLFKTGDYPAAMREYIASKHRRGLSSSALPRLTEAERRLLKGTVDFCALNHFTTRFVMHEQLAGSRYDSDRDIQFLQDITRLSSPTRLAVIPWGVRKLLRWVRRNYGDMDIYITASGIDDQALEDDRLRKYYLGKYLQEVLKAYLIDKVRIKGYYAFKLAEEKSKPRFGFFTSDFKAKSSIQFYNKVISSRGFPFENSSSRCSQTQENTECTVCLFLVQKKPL
From the text: A Protein A biosensor chip (Cat. # 29127556, GE) was allowed to affinity capture an antibody, and then a certain concentration of hKLB (R&D, Cat. # 5889-KB) was allowed to flow through the surface of the chip. The reaction signals were detected in real time using a Biacore T200 instrument to obtain an association and dissociation curve. After dissociation was complete in each experiment cycle, the biosensor chip was washed with Glycine1.5 (Cat. # BR-1003-54, GE) for regeneration. The data were fitted using a 1:1 model to obtain antibody affinity data, and the specific experimental results are shown in Table 10 below.

[2] = target: human KLB&FGFR1c complex on cells (human, UniProt Q86Z14 1-1044; P11362 22-822); assay: cell-based or functional assay
[3] = target: T2, human KLB on CHOK1-hKLB cells (human, UniProt Q86Z14 1-1044); assay: flow cytometry on CHOK1-hKLB cells
T2 construct: whole, on cells; also called human KLB antigen; β-Klotho
T2 sequence (looked up): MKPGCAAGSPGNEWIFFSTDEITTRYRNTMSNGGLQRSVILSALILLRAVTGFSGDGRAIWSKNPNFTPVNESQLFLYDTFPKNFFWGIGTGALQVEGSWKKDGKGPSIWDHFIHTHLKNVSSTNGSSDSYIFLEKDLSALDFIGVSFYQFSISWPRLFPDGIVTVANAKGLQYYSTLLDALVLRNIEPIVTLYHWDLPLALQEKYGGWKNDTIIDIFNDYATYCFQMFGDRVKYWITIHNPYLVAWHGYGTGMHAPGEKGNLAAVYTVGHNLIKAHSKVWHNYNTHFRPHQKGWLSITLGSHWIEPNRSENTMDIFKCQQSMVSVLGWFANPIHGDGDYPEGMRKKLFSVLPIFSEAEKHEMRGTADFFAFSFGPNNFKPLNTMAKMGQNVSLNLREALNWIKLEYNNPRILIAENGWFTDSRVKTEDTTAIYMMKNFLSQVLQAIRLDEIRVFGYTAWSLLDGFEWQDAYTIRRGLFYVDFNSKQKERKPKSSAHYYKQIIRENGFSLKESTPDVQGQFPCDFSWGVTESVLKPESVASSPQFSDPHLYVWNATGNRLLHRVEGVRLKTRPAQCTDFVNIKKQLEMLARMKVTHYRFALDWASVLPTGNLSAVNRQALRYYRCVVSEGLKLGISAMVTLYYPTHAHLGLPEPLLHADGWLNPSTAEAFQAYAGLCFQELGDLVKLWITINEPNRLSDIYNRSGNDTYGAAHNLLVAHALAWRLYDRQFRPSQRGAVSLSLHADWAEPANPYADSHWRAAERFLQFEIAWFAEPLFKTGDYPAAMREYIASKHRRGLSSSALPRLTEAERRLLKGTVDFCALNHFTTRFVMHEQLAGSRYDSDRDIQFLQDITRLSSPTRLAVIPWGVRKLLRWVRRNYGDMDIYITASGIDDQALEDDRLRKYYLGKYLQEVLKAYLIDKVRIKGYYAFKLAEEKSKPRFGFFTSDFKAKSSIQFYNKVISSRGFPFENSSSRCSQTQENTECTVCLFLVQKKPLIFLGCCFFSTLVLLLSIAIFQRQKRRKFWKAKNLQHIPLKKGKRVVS
From the text: The above heavy chain variable regions were fused to the heavy chain constant region (set forth in SEQ ID NO: 22) and the light chain variable regions were fused to the light chain constant region (set forth in SEQ ID NO: 23) to construct anti-KLB antibodies, and the binding activity of the obtained antibodies for CHOK1-hKLB was detected (see Test Example 2 of the present disclosure for the experimental method).
The binding ability of the antibodies for CHOK1 cell strains CHOK1-hKLB and CHOK1-cynoKLB overexpressing human KLB and monkey KLB (see Example 1 for specific preparation procedure), respectively, was detected by flow cytometry. The specific procedure was as follows: the above cells were cultured in 10% FBS-containing IMDM medium and incubated in an incubator at 37° C. and 5% CO₂ for 2 days. The cells were then added to a cell plate at 1×10⁵ cells per well, centrifuged at 300 g for 5 min, and then washed once with 1% BSA. The antibody diluted in gradient was added to the cell plate at 100 μL per well, and the mixture was incubated at 4° C. for 1 h and washed once with 1% BSA. The diluted (1:400) APC-goat anti-human IgG Fc fluorescent secondary antibody was added at 100 μL per well, and the resulting mixture was incubated at 4° C. for 1 h. The plate was washed three times with 1% BSA, PBS was added at 100 μL per well, and the plate was read.

human KLB&FGFR1c complex on cells, sequence (P11362 22-822, one chain of several): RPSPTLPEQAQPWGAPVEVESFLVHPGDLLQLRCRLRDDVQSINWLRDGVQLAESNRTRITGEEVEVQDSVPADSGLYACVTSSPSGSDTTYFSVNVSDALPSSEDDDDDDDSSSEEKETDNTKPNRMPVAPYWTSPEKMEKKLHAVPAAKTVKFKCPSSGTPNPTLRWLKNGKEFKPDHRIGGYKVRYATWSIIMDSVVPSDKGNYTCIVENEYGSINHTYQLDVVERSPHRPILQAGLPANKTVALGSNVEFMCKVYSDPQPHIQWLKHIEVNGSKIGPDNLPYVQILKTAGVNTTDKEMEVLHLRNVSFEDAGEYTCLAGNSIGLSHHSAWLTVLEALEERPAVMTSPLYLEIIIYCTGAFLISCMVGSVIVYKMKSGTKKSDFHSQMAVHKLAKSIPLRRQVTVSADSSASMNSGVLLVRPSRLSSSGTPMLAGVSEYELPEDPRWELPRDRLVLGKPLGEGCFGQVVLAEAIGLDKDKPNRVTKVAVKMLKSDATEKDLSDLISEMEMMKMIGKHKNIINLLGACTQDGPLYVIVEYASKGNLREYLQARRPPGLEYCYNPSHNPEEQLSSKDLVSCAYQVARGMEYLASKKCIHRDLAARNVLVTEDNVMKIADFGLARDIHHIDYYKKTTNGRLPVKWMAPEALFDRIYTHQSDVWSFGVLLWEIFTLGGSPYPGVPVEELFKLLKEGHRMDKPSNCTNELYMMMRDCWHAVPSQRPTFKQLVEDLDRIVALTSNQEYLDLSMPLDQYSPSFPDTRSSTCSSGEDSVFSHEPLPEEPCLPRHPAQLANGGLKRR

| Binder | Kd [1] [nM] | koff [1] [s⁻¹] | kon [1] [M⁻¹ s⁻¹] | Activation fold, SRE-Luc2P reporter in HEK293T-hKLB&hFGFR1c cells [2] [fold] | EC50 (nM), SRE-Luc2P reporter in HEK293T-hKLB&hFGFR1c cells [2] [nM] | EC50 [3] [nM] |
| --- | --- | --- | --- | --- | --- | --- |
| B1 | 0.199 | 4.91e-05 | 247000 | – | – | – |
| B2 | 0.977 | 0.000103 | 106000 | 2.29 | 5.35 | 2.5 |
| B3 | 2.1 | 0.000626 | 298000 | 3.57 | 2.62 | 0.32 |
